Experimental findings from article PMC6331917 are described below.

For the data set, the system named is NS5BΔ21 (viral RNA-dependent RNA polymerase) (Hepatitis C virus). The data set can be described thus: competition (filter binding). The conditions noted are these: 5 mM HEPES pH 7.9, 2 mM MgCl2, 25 mM KCl, 37 °C, 30 min; nitrocellulose dot-blot filter binding. Aptamer:CRE Kd values (Table 2) are RNA-RNA and not listed.

Regarding HCV-CRE194, the binding signal came out at 75.4 % complex.
